# Publication PMC10320017
# Biological target: SARS-CoV-1 S/native spike ectodomain (with C-terminal foldon and His tag) (SARS coronavirus Tor2 (SARS-CoV-1))
# Experiment: negative-stain EM
substance,measurement,value
SARS-CoV-1 S/native spike ectodomain (with C-terminal foldon and His tag) (domain or fragment),stoichiometry N,3
